Conditions: human, in vivo

botulinum toxin
botulinum toxin-related reactions (hypersensitivity, after injection and before ALDARA): No botulinum toxin-related reactions

Reference: US20160375112A1 (priority 2013, published 2016)
